Results taken from patent US20140072650A1, “GELATIN EXTRACT MADE FROM SKATE RAY SKIN AND ANTIHYPERTENSIVE COMPOSITION HAVING PEPTIDE ISOLATED FROM EXTRACT AS ACTIVE INGREDIENT” (PUKYONG NATIONAL UNIVERSITY INDUSTRY-UNIVERSITY CO, priority 2012, published 2014).

Target: angiotensin converting enzyme (Homo sapiens, UniProt P12821)
Test: ACE inhibition activity measurement (IC50)
Assay type: biochemical
Details: FIG. 6; for ACE inhibition: isolated peptides
Experimental: The inventors of the present invention measured the ACE inhibition activities based on the process concentration with respect to the second hydrolysate containing a lower molecular weight among the gelatin extracts of the skins of a skate ray obtained from the above embodiments so as to develop a new hypertension therapy medicine which could be quickly absorbed by a human body and has a good effect, and the measurements were conducted in the method of measuring IC50 concentration which could inhibit 50% of the angiotensin converting enzyme in accordance with the angiotensin converting enzyme inhibition measurement method.
The inventors of the present invention isolated two active peptides by way of FPLC (Fast Protein Liquid Chromatography) with respect to the second hydrolysate so as to isolate the functional peptides having an antihypertensive activity contained in the second hydrolysate of the gelatin extract obtained from the skins of a skate ray. As a result of the analysis on the base sequence of the peptide, it was confirmed that the peptide had the following base sequence. In addition, the ACE inhibition (IC50) was checked in the earlier explained method so as to check the antihypertensive activity with respect to the peptides.

Sequence of angiotensin converting enzyme (P12821 30-1306, species assumed): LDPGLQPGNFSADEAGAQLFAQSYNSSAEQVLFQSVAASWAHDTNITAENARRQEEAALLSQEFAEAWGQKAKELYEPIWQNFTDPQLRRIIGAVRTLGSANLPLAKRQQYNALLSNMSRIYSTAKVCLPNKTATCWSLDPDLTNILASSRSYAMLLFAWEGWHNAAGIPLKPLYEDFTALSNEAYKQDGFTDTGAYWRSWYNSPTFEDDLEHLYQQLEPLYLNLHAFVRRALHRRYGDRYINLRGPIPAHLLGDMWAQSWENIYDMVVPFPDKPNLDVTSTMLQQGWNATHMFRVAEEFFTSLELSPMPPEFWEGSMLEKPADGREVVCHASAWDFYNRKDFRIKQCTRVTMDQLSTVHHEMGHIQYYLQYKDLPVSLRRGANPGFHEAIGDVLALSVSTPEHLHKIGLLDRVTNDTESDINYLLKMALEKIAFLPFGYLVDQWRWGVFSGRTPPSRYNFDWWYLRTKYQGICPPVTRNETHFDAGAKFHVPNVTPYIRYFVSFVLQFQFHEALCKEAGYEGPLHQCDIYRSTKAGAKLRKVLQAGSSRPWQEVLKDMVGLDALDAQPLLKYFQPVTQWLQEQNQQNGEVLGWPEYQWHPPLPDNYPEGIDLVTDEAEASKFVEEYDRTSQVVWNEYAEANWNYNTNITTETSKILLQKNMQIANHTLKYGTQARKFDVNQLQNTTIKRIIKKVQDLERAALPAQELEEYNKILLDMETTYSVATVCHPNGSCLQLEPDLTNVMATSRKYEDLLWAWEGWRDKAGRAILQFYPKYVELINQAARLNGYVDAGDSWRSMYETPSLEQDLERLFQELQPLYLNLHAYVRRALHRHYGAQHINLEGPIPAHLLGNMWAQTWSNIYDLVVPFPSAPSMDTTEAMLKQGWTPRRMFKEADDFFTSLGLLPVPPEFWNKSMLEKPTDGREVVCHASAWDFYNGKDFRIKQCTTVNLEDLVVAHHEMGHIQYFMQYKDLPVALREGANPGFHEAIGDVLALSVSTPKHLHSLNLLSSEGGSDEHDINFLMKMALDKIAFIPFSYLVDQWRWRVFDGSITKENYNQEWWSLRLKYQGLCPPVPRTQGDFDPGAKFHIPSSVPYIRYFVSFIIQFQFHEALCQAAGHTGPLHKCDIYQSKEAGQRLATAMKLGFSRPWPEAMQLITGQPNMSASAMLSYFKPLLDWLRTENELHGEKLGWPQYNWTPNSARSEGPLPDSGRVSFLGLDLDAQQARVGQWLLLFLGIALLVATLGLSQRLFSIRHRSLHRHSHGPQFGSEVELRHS

ACE inhibition | Substance | antihypertensive activity (ACE inhibition) compared with the other peptide
have the ACE inhibition | MVGSAPGVL [SPI, peptide (829 Da) isolated by FPLC from the second hydrolysate] | higher antihypertensive activity as compared to the SP2
have the ACE inhibition | LGPLGHQ [SP2, peptide (720 Da) isolated by FPLC from the second hydrolysate] | –
